Fewer inactive variants are shown than the library holds.

For one data set, the system named is biotinyl-Ile-oxazolone. The data set is described as follows: self-aminoacylation, catalytic enhancement (BIO) (fold over background); higher = more active; k-Seq, kA / k0A0; sequences stand for … in GGGAAUGGAUCCACAUCUACGAAUUC…UUCACUGCAGACUUGACGAAGCUG
The gist of the method: (§1)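 Working in 50 μL HEPES/NaCl/KCl/MgCl2/CaCl2 buffer with 5% acetonitrile at pH 6.9–7.0, mutagenized RNA pools (0.43 μM; 21-nt variable region) were reacted with 2–1250 μM of each biotinyl-aminoacyl-oxazolone for 90 minutes at room temperature. Streptavidin capture followed, with quantification by triplicate qPCR and Illumina sequencing. Catalytic enhancement is reported as median kA over the uncatalyzed rate, the low-activity peak of a bimodal Gaussian fit to the data.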

A further data set relates to biotinyl-Phe-oxazolone. The data set is described as follows: self-aminoacylation, catalytic enhancement (BFO) (fold over background); higher = more active; k-Seq, kA / k0A0; sequences stand for … in GGGAAUGGAUCCACAUCUACGAAUUC…UUCACUGCAGACUUGACGAAGCUG
The method, boiled down:
as §1

The test system of the next data set is biotinyl-Met-oxazolone. Description: self-aminoacylation, catalytic enhancement (BMO) (fold over background); higher = more active; k-Seq, kA / k0A0; sequences stand for … in GGGAAUGGAUCCACAUCUACGAAUUC…UUCACUGCAGACUUGACGAAGCUG
The gist of the method:
as §1

The subject of the next data set is biotinyl-Val-oxazolone. Description: self-aminoacylation, catalytic enhancement (BVO) (fold over background); higher = more active; k-Seq, kA / k0A0; sequences stand for … in GGGAAUGGAUCCACAUCUACGAAUUC…UUCACUGCAGACUUGACGAAGCUG
The method, boiled down: as §1

The test system of the next data set is biotinyl-Trp-oxazolone. The data set is described as follows: self-aminoacylation, catalytic enhancement (BWO) (fold over background); higher = more active; k-Seq, kA / k0A0; sequences stand for … in GGGAAUGGAUCCACAUCUACGAAUUC…UUCACUGCAGACUUGACGAAGCUG
The method, boiled down: as §1

The test system of the next data set is biotinyl-Leu-oxazolone. The data set is described as follows: self-aminoacylation, catalytic enhancement (BLO) (fold over background); higher = more active; k-Seq, kA / k0A0; sequences stand for … in GGGAAUGGAUCCACAUCUACGAAUUC…UUCACUGCAGACUUGACGAAGCUG
The method, boiled down:
as §1

On to “CCAGACUUCAAGCAAUCGGCC [Fam1B.1 aminoacylation ribozyme variant]”, for which the self-aminoacylation with biotinyl-Ile-oxazolone stood at 3.33; in the data set with biotinyl-Phe-oxazolone, 17; in the data set on biotinyl-Met-oxazolone, 4.19; in the data set on biotinyl-Val-oxazolone, 3.43; in the data set with biotinyl-Trp-oxazolone, 6.87; with biotinyl-Leu-oxazolone, 4.53.
In the case of “AAAUUUGCUAAUAGUCGCAAA [Fam3.1 aminoacylation ribozyme variant]”, the self-aminoacylation with biotinyl-Ile-oxazolone turned out to be 3.32; in the data set with biotinyl-Phe-oxazolone, 2.95; in the data set with biotinyl-Met-oxazolone, 3.08; with biotinyl-Val-oxazolone, 2.41; in the data set with biotinyl-Trp-oxazolone it was 3.82; in the data set on biotinyl-Leu-oxazolone, 3.17.
For the sequence “AAGUUUGCUAAUAUUAGCAAG [Fam3.1 aminoacylation ribozyme variant]”, the self-aminoacylation with biotinyl-Ile-oxazolone was 1.28; in the data set with biotinyl-Phe-oxazolone it was 1.2; in the data set on biotinyl-Met-oxazolone, 1.32; in the data set with biotinyl-Val-oxazolone, 1.24; in the data set on biotinyl-Trp-oxazolone, 1.3; with biotinyl-Leu-oxazolone it was 1.08.
Consider “AAGUUUUCUAAUAGUCGCAAG [Fam3.1 aminoacylation ribozyme variant]”, for which the self-aminoacylation came to 1.51 in the data set with biotinyl-Ile-oxazolone; 2.64 with biotinyl-Phe-oxazolone; 1.23 in the data set with biotinyl-Met-oxazolone; 1.31 in the data set with biotinyl-Val-oxazolone; 1.58 with biotinyl-Trp-oxazolone; 1.32 with biotinyl-Leu-oxazolone.
For “AUUCAGCUAGGUCAUUGGGUG [Fam2.2 aminoacylation ribozyme variant]”, the self-aminoacylation with biotinyl-Ile-oxazolone was determined as 2.04; in the data set with biotinyl-Phe-oxazolone, 15; with biotinyl-Met-oxazolone it was 2.62; with biotinyl-Val-oxazolone, 2.55; in the data set with biotinyl-Trp-oxazolone, 3.25; in the data set on biotinyl-Leu-oxazolone it was 2.38.
As to “AAGUUUGUUAAUAAUCGCAAG [Fam3.1 aminoacylation ribozyme variant]”, the self-aminoacylation came to 0.928 in the data set on biotinyl-Ile-oxazolone; 1.05 with biotinyl-Phe-oxazolone; 0.824 in the data set on biotinyl-Met-oxazolone; 0.842 in the data set with biotinyl-Val-oxazolone; 0.883 in the data set with biotinyl-Trp-oxazolone; 0.995 with biotinyl-Leu-oxazolone.
“AUUCCCCUAGGGCAUCGGGUG [Fam2.2 aminoacylation ribozyme variant]”: the self-aminoacylation came out at 7.87 in the data set with biotinyl-Ile-oxazolone; 42.8 with biotinyl-Phe-oxazolone; 10.3 with biotinyl-Met-oxazolone; 6.4 in the data set with biotinyl-Val-oxazolone; 10.4 in the data set with biotinyl-Trp-oxazolone; 12.4 with biotinyl-Leu-oxazolone.
Regarding “UCACGCUUCAAGCAAUCGGUC [Fam1B.1 aminoacylation ribozyme variant]”, the self-aminoacylation in the data set on biotinyl-Ile-oxazolone is 1.32; in the data set with biotinyl-Phe-oxazolone, 84.1; in the data set with biotinyl-Met-oxazolone, 1.56; in the data set with biotinyl-Val-oxazolone it was 1.7; in the data set on biotinyl-Trp-oxazolone it was 41.6; with biotinyl-Leu-oxazolone, 2.46.
On to “AUUCACCUAGGCCAUCGGGAG [Fam2.2 aminoacylation ribozyme variant]”, for which the self-aminoacylation with biotinyl-Ile-oxazolone stood at 1.1; in the data set on biotinyl-Phe-oxazolone, 0.861; with biotinyl-Met-oxazolone it was 1.69; in the data set on biotinyl-Val-oxazolone, 1.39; in the data set on biotinyl-Trp-oxazolone it was 1.05; in the data set with biotinyl-Leu-oxazolone, 0.965.
Turning to “ACACACCUAGGUCAUCGGGUG [Fam2.2 aminoacylation ribozyme variant]”, the self-aminoacylation was 2.98 with biotinyl-Ile-oxazolone; 19 in the data set on biotinyl-Phe-oxazolone; 3.51 in the data set with biotinyl-Met-oxazolone; 3.19 in the data set with biotinyl-Val-oxazolone; 4.91 in the data set with biotinyl-Trp-oxazolone; 3.61 in the data set with biotinyl-Leu-oxazolone.
As to “AAGUUUGCUACUAGUCGCAUG [Fam3.1 aminoacylation ribozyme variant]”, the self-aminoacylation in the data set with biotinyl-Ile-oxazolone is 0.915; in the data set with biotinyl-Phe-oxazolone, 1.11; in the data set with biotinyl-Met-oxazolone, 0.717; with biotinyl-Val-oxazolone it was 1.09; in the data set with biotinyl-Trp-oxazolone, 0.836; with biotinyl-Leu-oxazolone, 0.707.
Consider “CUACUUCAAAUAAGCGGUCUG [Fam1A.1 aminoacylation ribozyme variant]”, for which the self-aminoacylation in the data set with biotinyl-Ile-oxazolone was 0.958; in the data set with biotinyl-Phe-oxazolone it was 0.945; in the data set with biotinyl-Met-oxazolone, 0.797; in the data set with biotinyl-Val-oxazolone it was 0.799; in the data set on biotinyl-Trp-oxazolone, 0.575; in the data set with biotinyl-Leu-oxazolone, 0.824.
On to “AAGUUGGCUAAUACUCGCAAG [Fam3.1 aminoacylation ribozyme variant]”, for which the self-aminoacylation was determined as 1.39 with biotinyl-Ile-oxazolone; 1.44 in the data set on biotinyl-Phe-oxazolone; 1.2 with biotinyl-Met-oxazolone; 1.39 in the data set with biotinyl-Val-oxazolone; 1.45 with biotinyl-Trp-oxazolone; 0.979 in the data set on biotinyl-Leu-oxazolone.
For “AAGUUUGCCAAUAGUCACAAG [Fam3.1 aminoacylation ribozyme variant]”, the self-aminoacylation was 1.55 in the data set on biotinyl-Ile-oxazolone; 1.1 with biotinyl-Phe-oxazolone; 1.56 in the data set with biotinyl-Met-oxazolone; 1.23 with biotinyl-Val-oxazolone; 1.04 in the data set with biotinyl-Trp-oxazolone; 1.07 in the data set with biotinyl-Leu-oxazolone.
For the sequence “AUUAACAUAGGUCAUCGGGUG [Fam2.2 aminoacylation ribozyme variant]”, the self-aminoacylation in the data set with biotinyl-Ile-oxazolone amounted to 3.92; in the data set with biotinyl-Phe-oxazolone, 38; in the data set on biotinyl-Met-oxazolone, 6.29; with biotinyl-Val-oxazolone, 3.51; with biotinyl-Trp-oxazolone, 6.55; in the data set with biotinyl-Leu-oxazolone, 7.
“AUUACCCUGGGCAUCGCGUGA [Fam2.1 aminoacylation ribozyme variant]”: the self-aminoacylation was 3.74 with biotinyl-Ile-oxazolone; 48.7 in the data set with biotinyl-Phe-oxazolone; 6.98 in the data set on biotinyl-Met-oxazolone; 5.38 in the data set with biotinyl-Val-oxazolone; 7.7 in the data set on biotinyl-Trp-oxazolone; 9.41 with biotinyl-Leu-oxazolone.
As for “AUUCACCUAGUUCAUCGGCUG [Fam2.2 aminoacylation ribozyme variant]”, the self-aminoacylation with biotinyl-Ile-oxazolone amounted to 1.36; in the data set on biotinyl-Phe-oxazolone, 4.73; in the data set with biotinyl-Met-oxazolone it was 1.27; in the data set on biotinyl-Val-oxazolone it was 1.55; with biotinyl-Trp-oxazolone it was 1.03; in the data set on biotinyl-Leu-oxazolone, 1.57.
Turning to “CCACACUUCCAGCAAUCGGCC [Fam1B.1 aminoacylation ribozyme variant]”, the self-aminoacylation was determined as 3.06 in the data set with biotinyl-Ile-oxazolone; 3.34 in the data set with biotinyl-Phe-oxazolone; 2.08 with biotinyl-Met-oxazolone; 4.01 in the data set on biotinyl-Val-oxazolone; 4.06 with biotinyl-Trp-oxazolone; 2.42 in the data set with biotinyl-Leu-oxazolone.
Regarding “AAGUUUGCUAUUAGUCGCAAA [Fam3.1 aminoacylation ribozyme variant]”, the self-aminoacylation in the data set on biotinyl-Ile-oxazolone amounted to 1.52; in the data set on biotinyl-Phe-oxazolone, 1.58; in the data set on biotinyl-Met-oxazolone, 1.84; in the data set with biotinyl-Val-oxazolone, 1.35; in the data set with biotinyl-Trp-oxazolone, 1.74; in the data set with biotinyl-Leu-oxazolone it was 1.47.
As for “AUACACCUAGGUCAUCGCGUG [Fam2.2 aminoacylation ribozyme variant]”, the self-aminoacylation in the data set on biotinyl-Ile-oxazolone came to 4.68; in the data set with biotinyl-Phe-oxazolone it was 69.7; in the data set with biotinyl-Met-oxazolone, 8.65; with biotinyl-Val-oxazolone, 5.01; in the data set with biotinyl-Trp-oxazolone, 8.07; in the data set on biotinyl-Leu-oxazolone, 10.4.
On to “AUUACCCGGGUCAUCGAGCGA [Fam2.1 aminoacylation ribozyme variant]”, for which the self-aminoacylation with biotinyl-Ile-oxazolone came to 2.08; in the data set on biotinyl-Phe-oxazolone, 1.09; in the data set on biotinyl-Met-oxazolone it was 1.97; in the data set on biotinyl-Val-oxazolone, 2.18; in the data set on biotinyl-Trp-oxazolone it was 1.55; in the data set with biotinyl-Leu-oxazolone, 2.22.
Turning to “AUUGGCCUAGGUCAUCGGGUG [Fam2.2 aminoacylation ribozyme variant]”, the self-aminoacylation worked out at 18.3 in the data set on biotinyl-Ile-oxazolone; 277 in the data set with biotinyl-Phe-oxazolone; 36.9 with biotinyl-Met-oxazolone; 14.9 in the data set on biotinyl-Val-oxazolone; 27.4 in the data set on biotinyl-Trp-oxazolone; 48 in the data set with biotinyl-Leu-oxazolone.
“AAACUUGCUAAUAGUCGCAAG [Fam3.1 aminoacylation ribozyme variant]”: the self-aminoacylation was determined as 2.62 in the data set on biotinyl-Ile-oxazolone; 2.21 with biotinyl-Phe-oxazolone; 1.76 in the data set with biotinyl-Met-oxazolone; 1.97 with biotinyl-Val-oxazolone; 4.6 with biotinyl-Trp-oxazolone; 1.29 in the data set on biotinyl-Leu-oxazolone.
As for “CUACUUCGAACAAUCGGACUG [Fam1A.1 aminoacylation ribozyme variant]”, the self-aminoacylation stood at 0.679 in the data set on biotinyl-Ile-oxazolone; 0.493 in the data set on biotinyl-Phe-oxazolone; 0.593 in the data set with biotinyl-Met-oxazolone; 0.502 with biotinyl-Val-oxazolone; 0.492 in the data set on biotinyl-Trp-oxazolone; 0.65 with biotinyl-Leu-oxazolone.
On to “CCACACUUCAAGCUAUCGGUG [Fam1B.1 aminoacylation ribozyme variant]”, for which the self-aminoacylation with biotinyl-Ile-oxazolone was determined as 3.88; in the data set on biotinyl-Phe-oxazolone, 33; in the data set on biotinyl-Met-oxazolone it was 5.19; in the data set on biotinyl-Val-oxazolone, 3.77; in the data set on biotinyl-Trp-oxazolone, 5.5; with biotinyl-Leu-oxazolone, 6.48.

Values taken from the supplement of paper PMC9233669.
